The source of these data is US5773574A, “Polypeptides for promoting cell attachment” (The Scripps Research Institute, priority 1991, dated 1998).

Residues, ends and D or L forms follow the SMILES beside them.

The target in experiment [1] is T1, GPIIb-IIIa (Homo sapiens, UniProt P05106+P08514).
T1 construct: GPIIb-IIIa from platelet lysates is purified by the following procedure; from tissue
Kind of experiment: Interaction of 125I-labelled ligands with GPIIb-IIIa coated microtiter wells (Table 3). Format: binding. The note with it: 125I-labelled ligand. Here is the method:
Incubate the GPIIb-IIIa with plate for 1 hour at room temperature, then dump unbound and block with 150 ul of 5% BSA in the same buffer for 1 hour at room temperature. Wash three times with 150 μl of Tyrode's buffer with 5 mM HEPES, 1 mM MgCl2 1 mg/ml dextrose, 1 mg/ml BSA. Add 50 μl of ^125 I fusion protein (125 mg/ml) at varied concentration (4×10^-7 to 1×10^-10 M). Incubate 4 hours to overnight at room temperature (with lead shield).
Carefully remove radioactive samples and wash 3 times with 150 μl Tyrodes with 5 mM HEPES, 1 mM MgCl2, 1 mg/ml dextrose, 1 mg/ml BSA. Count with a Gamma Counter and elute by boiling in SDS-PAGE loading Buffer.
To determine if the insert coded polypeptide containing fibronectin residues 1255-1456 bound GPIIb-IIIa, the capacity of microtiter wells coated with purified GPIIb-IIIa to bind the radiolabelled fusion-protein preparation was ascertained (Table 3). In addition, the radiolabelled material bound to the insolubilized GPIIb-IIIa was recovered and analyzed by SDS-PAGE followed by radioautography. […] The isolated protein products were a mixture of insert coded polypeptides containing fusion protein and maltose binding protein breakdown products. only those bands containing the insert-coded polypeptide bound to the insolubilized GPIIb-IIIa and that binding was inhibitable by either EDTA or the monoclonal antibody FnI-16.

For experiment [2], the target named is GPIIb-IIIa (Homo sapiens (Human)) (UniProt P08514). Kind of experiment: 10 nM biotinylated Fn on GPIIb-IIIa-coated wells, avidin-HRP detection.
The target is the same in experiment [3]. As to the kind of experiment: 125I-labelled ligand on GPIIb-IIIa-coated wells; no inhibitor.
Experiment [4] has the same target. Kind of experiment: 125I-labelled ligand on GPIIb-IIIa-coated wells; inhibitor Mab 16.12.
Experiment [5] has the same target. As to the kind of experiment: 125I-labelled ligand on GPIIb-IIIa-coated wells; inhibitor 2 mM GDTA (so in the source).
Experiment [6] deals with T1, GPIIb-IIIa. As to the kind of experiment: Competition assay: biotinylated Fn binding to purified GPIIb-IIIa in presence of synthetic polypeptides. The following applies: 250 μM polypeptide, 10 nM biotinylated Fn; FIG. 9.
Experimental: (SEQ ID NO 11) as shown by the line with closed squares. […] The competition assays were performed in microtiter wells of a 96-well plate as described in Example 9b(1). Briefly, microtiter wells coated with purified GPIIb-IIIa receptor were maintained with 10 nM biotinylated Fn for 2 hours at room temperature in the presence of varying concentrations of D-11-T and RGDS.
The competition assay was performed by first admixing into individual wells of a 96 well microtiter plate (Immunlon, Dynatech) 10 μg/ml of purified GPIIb-IIIa, prepared in Example 1, diluted in HEPES-saline buffer, pH 7.4, consisting of 10 mM HEPES, 150 mM NaCl, 1 mM CaCl2 and 1 mM MgCl2. […]
The Fn-peptide admixtures were maintained in GPIIb-IIIa-coated wells for 2 hours at room temperature to allow the biotinylated Fn to bind to the receptor. Following this maintenance period, the reacted wells were washed as described above and the amount of biotinylated Fn bound to GPIIb-IIIa was determined by admixing 0.1 ml avidin bound to biotinylated horseradish peroxidase H (Hrp) (Sigma, St. Louis, Mo.) at a 1:2000 dilution to form an avidin-biotinylated Fn admixture. […] After maintaining the color developing-reaction admixture for 10 minutes at 20° C., the reaction was stopped with the admixture of 2N H2 SO4, and the stopped reactions were measured for absorbance as described in Example 3a. […]
In experiment [7] the target is GPIIb-IIIa (Homo sapiens (Human)) (UniProt P08514). As to the kind of experiment: competition with 10 nM biotinylated Fn on GPIIb-IIIa-coated wells.

For the compound “Fibronectin: intact Fn isolated from fresh human citrated plasma on gelatin-sepharose”, the “Counts ×10^-3” value in experiment [1] (inhibitor 2 mM EDTA) is given as 8 Counts ×10^-3; in experiment [1] (inhibitor Mab 16.12) it was 12 Counts ×10^-3; in experiment [1] (no inhibitor), 42 Counts ×10^-3.
Consider “fibronectin (Fn), intact, isolated from fresh human citrated plasma (from UniProt P02751) (ligand)”, for which the absorbance at 490 nm (absorbance at 490 nm) in experiment [2] came out at 2.7. In addition, the Counts ×10^-3 (counts ×10^-3) in experiment [3] came out at 42; in experiment [4] it was 12; in experiment [5], 8.
For `CC[C@H](C)[C@H](NC(=O)[C@H](CO)NC(=O)[C@H](CC(N)=O)NC(=O)[C@H](CCCNC(=N)N)NC(=O)[C@H](CO)NC(=O)[C@H](Cc1c[nH]cn1)NC(=O)[C@@H]1CCCN1C(=O)[C@@H](NC(=O)[C@H](CCCNC(=N)N)NC(=O)[C@@H](N)CC(=O)O)C(C)C)C(=O)N[C@H](C(=O)O)[C@@H](C)O` [D-11-T] (H-DRVPHSRNSIT-OH), the “inhibition of binding of biotinylated Fn to GPIIb-IIIa” value in experiment [6] was “greater than 80%”.
Regarding polypeptide DRVPHSR, the percent inhibition of control binding at 200 µM polypeptide in experiment [7] is 35 to 40%.
